In publication PMC4240654:

Legend:
[1] = biological target: BDD rFVIII (recombinant B-domain-deleted factor VIII, ReFacto / Xyntha) (UniProt P00451)
[2] = biological target: rFVIIIFc (recombinant factor VIII Fc fusion protein) (human) (UniProt P00451)
[3] = biological target: SC rFVIIIFc (single chain recombinant factor VIII Fc fusion protein) (human)
[4] = biological target: SC rFVIIIFc R1645A/R1648A (human)

**Q.** How did the Apparent K D (FIXa-FVIIIa affinity), FXa generation assay on synthetic phospholipids, thrombin-activated BDD rFVIII (ReFacto) [1] turn out when FIXa (activated factor IX) (enzyme) was run?
**A.** Its Apparent K D (FIXa-FVIIIa affinity), FXa generation assay on synthetic phospholipids, thrombin-activated BDD rFVIII (ReFacto) is 4.5 nM.

**Q.** What about the Apparent K D (FIXa-FVIIIa affinity), FXa generation assay on synthetic phospholipids, thrombin-activated rFVIIIFc [2] of the same substance?
**A.** The Apparent K D (FIXa-FVIIIa affinity), FXa generation assay on synthetic phospholipids, thrombin-activated rFVIIIFc was 5.5 nM.

**Q.** What about the Apparent K D (FIXa-FVIIIa affinity), FXa generation assay on synthetic phospholipids, thrombin-activated SC rFVIIIFc [3] of the same substance?
**A.** The Apparent K D (FIXa-FVIIIa affinity), FXa generation assay on synthetic phospholipids, thrombin-activated SC rFVIIIFc was 4.1 nM.

**Q.** And the Apparent K D (FIXa-FVIIIa affinity), FXa generation assay on synthetic phospholipids, thrombin-activated SC rFVIIIFc R1645A/R1648A [4]?
**A.** The Apparent K D (FIXa-FVIIIa affinity), FXa generation assay on synthetic phospholipids, thrombin-activated SC rFVIIIFc R1645A/R1648A was 3.8 nM.
